Experiment: yeast display, Sf9 membrane polyspecificity reagent, FACS + sequencing; frameworks hold sequencing errors
How it was run: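 In a synthetic yeast display library (Saccharomyces cerevisiae BJ5465), nanobody expression was induced with galactose for 36–48 hours. FACS gates were set low and high (top ~1%) using anti-HA fluorescence for expression and streptavidin fluorescence for binding of the Sf9 membrane reagent. Each polyreactivity label is drawn from the gate of origin.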

| Sequence | polyreactivity (PSR sort gate) |
| --- | --- |
| QVQLVESGGGLVQAGGSLRLSCASSGLTFWRYVMGWYRQAPGKESELVATISIGGSTNYADSVKGRFTISRDNAKNTVYLQMNSLKPEDTAVYYCAAKFRGDVFPYYYWGQGTQVTVSS | high polyreactivity |
| QVQLVESGGGLVQAGGSLRLSCASSGPIIFAYAMGWYRQAQGKEREFVAAISDNDGSTYYADSVKGRFTISRDNAKNSVYLQMNSLKPEDTAVYYCNADLGYVYDYWGQGTQVTVSS | low polyreactivity |
| QVQLVESGGGLVQAGGSLRLSCASSGRICGYYAMGLYRQAPGKERELVAAITSGGSTYYADSVKGRFTISRDNEKNTVYFQMKSLKPEDTAVYFCNKVTRYSPYDYWGQGTQVTVSS | high polyreactivity |
| QVQLVESGGGLVQAGGSLRLSCASSGRIFGPNAMGWYRQAPGKERELVAAITSGGRTKYADSVKGRFTISRDNAKNTVYLQMNSLKPEDTAVYYCATTAQYYWGQGTQVTVSS | high polyreactivity |
| QVQLVESGGGLVQAGGSLRLSCASSGRIFHVYAMGWYRQAPGKERELVADITWSGGSTYYADSVKGRFTISRDNAKNTVYLQMNSLKPEDTAVYYCAASVLYGRHYSYGYWGQGTQVTVSS | high polyreactivity |
| QVQLVESGGGLVQAGGSLRLSCASSGRIFTWYAMGWYRQAPGKERELVATISSGGSTNYADSVKGRFTISRDNAKNTVYLHMNSKKPEDTAVYYCAARRFFYRYYYKSDYWGQGTQVTVSS | high polyreactivity |
| QVQLVESGGGLVQAGGSLRLSCASSGRIFYPNAMGWYRQAPGIERELVAAISSRGGSTYYADSVKGRFTISRDNAKNTVYLQMNSLKPEDTAVYYCNRVYYTIGYDYWGQGTQVSVSS | high polyreactivity |
| QVQLVESGGGLVQAGGSLRLSCASSGRISYRNAMGWYRQAPGKERELVAAISSSGDSTYYADAVKGRFTISRDNAKNTVYLQMNSLKPEDTAVYYCAARHSAVYYGYHRYYYWGQGTQVTVSS | high polyreactivity |
| QVQLVESGGGLVQAGGSLRLSCASSGRIYVYTMGWYRQAPGKERELVATITRSGGSTYYADSVKGRFTISRDNAKNTVYLQMNSLKPEDTAVYYCNAVGRFTPYSSRREYDYWGQGTQVTVSS | low polyreactivity |
| QVQLVESGGGLVQAGGSLRLSCASSGRTFGTNTMGWYRQAPGKERELVAAISRSGVRTYYADSVKGRFTISRDNAKNTVYLQMKSLKAEDTAVYYCATDYKVHGFDYWGQGTQVSVSS | high polyreactivity |
| QVQLVESGGGLVQAGGSLRLSCASSGRTFPAYVMGWYREAPGKERDLVAAISRGGSTYYADSVKGRFTISRDNAKNTVYFQMNSLKPEDTAVFYCAARWSYSRYTGNDYSRLGKFYYWGQGTQVTVSS | high polyreactivity |
| QVQLVESGGGLVQAGGSLRLSCASSGRTFRVNAMVRYRHAPGKERELFAAITYTGGSTYYADSVKGRFTISRDNAKNTVYLQMNSLKPEDTAVYYCAARITSPRASSRGFYYWGQGTQVTVSS | high polyreactivity |
| QVQLVESGGGLVQAGGSLRLSCASSGRTFWFYTMGWYRQAPGKERELVAAISSGGSTNYADSVKGRFTISRDNAKNTVYLQMNSLKPEDTAVYYCNKPPPNRGRYDYWGQGTQVTVSS | low polyreactivity |
| QVQLVESGGGLVQAGGSLRLSCASSGRTFYRNAMGWYRQAPGKERELVAAIRGSGSSTYYADSVKGRFTISRDNAKNSVYLQMKSLKQEDTAVYYCAADYINYNGYARYYFWGQGTQVTVSS | high polyreactivity |
| QVQLVESGGGLVQAGGSLRLSCASSGRTFYRNAMGWYRQAPGKERELVAAITSGGSTYYADSVKGRFTISRDNAKNTVYLQMNSLKPEDNAVYYCAKRIGWVPSRSWTPAFWGQGTQVNVSS | low polyreactivity |
| QVQLVESGGGLVQAGGSLRLSCASSGRTIGVYAMGWYRQAPGKERELVAAISWSGGTTYYADSVKGRFTISRDNAKNTVYLQMNSLKPEDTAVYYCAADSYTEVDYWGQGTQVTVSS | low polyreactivity |
| QVQLVESGGGLVQAGGSLRLSCASSGSIFAFNTLGWYRQAPGKERELVAAINSGGSTYYADSVKGRFTISRDNAKNTVYLQMNSLKPEDTAVYYCNARSYGIVVEYDYWGQGTQVTVSS | low polyreactivity |
| QVQLVESGGGLVQAGGSLRLSCASSGSIFDFNAMGWYRQAPGKERELVATIRYSGGSTYYADSVKGRFTISRDNAKNTVYLQMNSLKPVDTAVYYCAADPDWTHWFAYYYHYGYWGQGTQVTVSS | low polyreactivity |
| QVQLVESGGGLVQAGGSLRLSCASSGSIFDVNAMGWYRPAPGKERELVAAISQRGTRTYYADSVKGSFTISRDNAKNTVYLQMNSLKPEDTAVYYCNRGGWRQYDSWGQGSQVTVSS | high polyreactivity |
| QVQLVESGGGLVQAGGSLRLSCASSGSIFLSYTMGWYRKAPGKERELVAAISKRGGSSYYADSVKGRFTISRDNAKNTVYFQMNTLIPEDTAVYYFNADVRYRRRISVTNVYDYWGQGTQVTVSS | high polyreactivity |
| QVQLVESGGGLVQAGGSLRLSCASSGSIFNTYTMGWYRQAPGKDRELVAAISSGGSTYYADSVKGRFTISRDNAKKTVYLQMNSLKPEDTAVYYCAAYGHSFQIYDYWGQGTHVTVSS | low polyreactivity |
| QVQLVESGGGLVQAGGSLRLSCASSGSIFRFNVMGWYRQAPGKERELVAAITRGDSTNYADSVKGRFTISRDNAKNTVYLQMNSLKPEDTAVYYCNARLYVPYRYDYWGQGTQVTVSS | low polyreactivity |

| Sequence | polyreactivity (PSR sort gate) |
| --- | --- |
| QVQLVESGGGLVQAGGSLRLSCASSGSIFRRYAMGWYRQATGKERELVAAISSNGGSTYYADSVKGRFTISRDNAKNTVYLQLNSLKPEDTAGYYCNAQVVHYRVSSVITYTIYDYWGQGTQVTVSS | high polyreactivity |
| QVQLVESGGGLVQAGGSLRLSCASSGSIFSYYAKGWYIQAPGKASQLVADISQSGGTTYYADSVKGRFTISRDNAKNTVYLLKNSLKPEETAVYYCAARAPSSFDTQYYYWGEGTQVTVSS | low polyreactivity |
| QVQLVESGGGLVQAGGSLRLSCASSGSIFYTYAMGWYRQAPGKERELVAAISRSGGSTYYADSVKGRFTISRDNAKNTVYLQMNSLKPEDTAVYYCAAVSYRGRGYWGQGTQVTVSS | high polyreactivity |
| QVQLVESGGGLVQAGGSLRLSCASSGSIINRYAMGGYRQAPGKERELVAAITQSGGRTYYADSVKGRFTISRDNAKNTVYLQMNSLKPEDTAVYYCNAVRWYLYDYWGQGTQVTVSS | high polyreactivity |
| QVQLVESGGGLVQAGGSLRLSCASSGSTFARNAMGWYRQAPGKERELVAAISWRGGSTYYADSVKGRFTISRDNAKNTVYLQKNSLKPEDTAVYYCAADGAYWRGTGYEYWGQGTQVTVSS | high polyreactivity |
| QVQLVESGGGLVQAGGSLRLSCASSGSTFGINAMGGYREAPGKERELVAAITFISGSTNYADSVKGRFTISRDKAKNTVNLQMNCLKPEDTAVYYCAADSVYYAGYDVDYWGQGTQVTVSS | low polyreactivity |
| QVQLVESGGGLVQAGGSLRLSCASSGSTFGPYTMGWYTQAPGKERELVATISSGGSTYYADSVKGRFTISRDNAKYTVYLQMKSLKPEDTAVYYCAARYWSIYDYWGQGTQVTVSS | low polyreactivity |
| QVQLVESGGGLVQAGGSLRLSCASSGSTFLINAMGWYRQAPGKERELVAAISRDGSTNYADSVKGRFTISRDNAKNTVYLQMHSLIPEDTAVYSCAAVPGISVGRQPGYDYDYWGQGTQVTVSS | low polyreactivity |
| QVQLVESGGGLVQAGGSLRLSCASSGSTFPSYAMGWYRQAPGKERELVAAINSGGGTNYADSVKGRFTISRDNAKNTVYLQMNSLKPEDTAVYYCAAYEGTYFTEVDYWGQGTQVTVSS | low polyreactivity |
| QVQLVESGGGLVQAGGSLRLSCASSGSTFRKNTMGWYIPAPGKEREFVAAISRSGGSTYYADSVKGRFTISRDNAKNTVYLQMNSLKPEDTAVYYCAASYYPHQYSYELGDYWGQGTQVTVSS | low polyreactivity |
| QVQLVESGGGLVQAGGSLRLSCASSGSTFSRYALGWYRQAPGKERELVAAITSYGGSTYYADSVKGRFTISRDKAKNTFYLQMNSLKPEYTAVYYCAASYQVRYDYWGQGTQVTVSS | high polyreactivity |
| QVQLVESGGGLVQAGGSLRLSCASSGSTFTRYAMGWYRQAPGKERELVAAINSSGGRTYYADSVKGRFTISRDNAKNTVYLQMNSLKPEDTAVYYCAATRGRYREDEDYWGQGTQVTVSS | high polyreactivity |
| QVQLVESGGGLVQAGGSLRLSCASSGSTFWPNAMGWYRQAPGKERELVAAITGGGGTNYADSVKGRFTISRDNAKNTVYLQMNSLKPEDTAVYYCAAKKVNSRSHVKYYYWGQGTQVTVSS | high polyreactivity |
| QVQLVESGGGLVQAGGSLRLSCASSGSTSYRYAMGWYRQAPGKERELVAAISSSGGSTYYADSVKGRFTISRDNAKNTVYLQMNSLKPEDTAVYYCAARFYSGPGGYTMYYWGQGTQVTVSS | high polyreactivity |
| QVQLVESGGGLVQAGGSLRLSCASSGTIFKYSAMGWYIQAPGKEREFVAGISWSGGRTYYADSVKGRFTISRDNAKITVYLHMNSLKPEDTAVYYCARVRLTSYGYYSWGQGTQVTVSS | high polyreactivity |
| QVQLVESGGGLVQAGGSLRLSCASSGTIFSWYTMGRYRQAPGKERELVARITTSGGTTRYADSVKGRFTISRDNAKNTVYFQINSLKPEDTAVYYCAADRSPYWRGYFRYNYWGQGSQVTVSS | high polyreactivity |
| QVQLVESGGGLVQAGGSLRLSCASSGTLYRYAMGWYIQATGKERELVAAISSNGGSTYYADSVKGRFTISRDNEKNTVYLQMNSLKPEDTAVYYCNALSRRFPLYGFWGQGTQVTVSS | high polyreactivity |
| QVQLVESGGGLVQAGGSLRLSCASSGTTFQYYAMGSYRQAPGKERELVARISDSSANTYYADSVNGRFTISRDNAMNTVYLQMNSLKPEDTAVYYCAASVPYKFYCVVSVRYEYWGQGTQVTVSS | low polyreactivity |
| QVQLVESGGGLVQAGGSLRLSCASSGYIITRKAMGWYRQAPGKERELVATISSRGGRTYYADSVKGRFTISRDNAKNTVYLQMNSLKPEDTAVYYCAATPWYRTRTYDYWGQGTQVTVSS | high polyreactivity |
| QVQLVESGGGLVQAGGSLRLSCASSGYTFTVNAMGWYRQAPGKERELVAAISGSGGSTYYADSVKGRFTISRDNAKNTVYLQMNSLKPEDTAVYYCAADYWYYYWPLDYWGQGTQVTVSS | high polyreactivity |
| QVQLVESGGGLVQAGGSLRLSCASSVSTVKYAMGWYRQAPGKERELVAAISKSAGRTYYADSVKGRFTISRDNAKNTVYLQMNSLKPVDTAVYYCADRQSYYGDDYWGQCTQVTVSS | high polyreactivity |

From the nanobody polyreactivity screen of Harvey et al. (2022)
